Results from paper PMC7935746.

Assays:
[1] = molecular target: His-tagged TriC transporter (Pseudomonas aeruginosa); experiment: SEC
[2] = molecular target: His-tagged TriC transporter (Pseudomonas aeruginosa); experiment: cryo-EM structure

Substance	stoichiometry N [1]	stoichiometry N [2]
fused TriAB dimer (TriA and TriB on one polypeptide)	1	–
His-tagged TriC transporter (natural protein)	3	3
